Experimental data reported in paper PMC3217464 (Molecular cell, 2009).

B1: His-tagged full length PGC-1α (natural protein, UniProt O70343 1-797, looked up)
chain: MAWDMCSQDSVWSDIECAALVGEDQPLCPDLPELDLSELDVNDLDTDSFLGGLKWCSDQSEIISNQYNNEPANIFEKIDEENEANLLAVLTETLDSLPVDEDGLPSFDALTDGAVTTDNEASPSSMPDGTPPPQEAEEPSLLKKLLLAPANTQLSYNECSGLSTQNHAANHTHRIRTNPAIVKTENSWSNKAKSICQQQKPQRRPCSELLKYLTTNDDPPHTKPTENRNSSRDKCASKKKSHTQPQSQHAQAKPTTLSLPLTPESPNDPKGSPFENKTIERTLSVELSGTAGLTPPTTPPHKANQDNPFKASPKLKPSCKTVVPPPTKRARYSECSGTQGSHSTKKGPEQSELYAQLSKSSGLSRGHEERKTKRPSLRLFGDHDYCQSLNSKTDILINISQELQDSRQLDFKDASCDWQGHICSSTDSGQCYLRETLEASKQVSPCSTRKQLQDQEIRAELNKHFGHPCQAVFDDKSDKTSELRDGDFSNEQFSKLPVFINSGLAMDGLFDDSEDESDKLSYPWDGTQPYSLFDVSPSCSSFNSPCRDSVSPPKSLFSQRPQRMRSRSRSFSRHRSCSRSPYSRSRSRSPGSRSSSRSCYYYESSHYRHRTHRNSPLYVRSRSRSPYSRRPRYDSYEAYEHERLKRDEYRKEHEKRESERAKQRERQKQKAIEERRVIYVGKIRPDTTRTELRDRFEVFGEIEECTVNLRDDGDSYGFITYRYTCDAFAALENGYTLRRSNETDFELYFCGRKQFFKSNYADLDTNSDDFDPASTKSKYDSLDFDSLLKEAQRSLRR
B2: His-tagged PGC-1α (501–797) (domain or fragment, UniProt O70343 501-797, looked up)
chain: NSGLAMDGLFDDSEDESDKLSYPWDGTQPYSLFDVSPSCSSFNSPCRDSVSPPKSLFSQRPQRMRSRSRSFSRHRSCSRSPYSRSRSRSPGSRSSSRSCYYYESSHYRHRTHRNSPLYVRSRSRSPYSRRPRYDSYEAYEHERLKRDEYRKEHEKRESERAKQRERQKQKAIEERRVIYVGKIRPDTTRTELRDRFEVFGEIEECTVNLRDDGDSYGFITYRYTCDAFAALENGYTLRRSNETDFELYFCGRKQFFKSNYADLDTNSDDFDPASTKSKYDSLDFDSLLKEAQRSLRR
B3: His-tagged PGC-1α (334–797) (domain or fragment, UniProt O70343 334-797, looked up)
chain: ECSGTQGSHSTKKGPEQSELYAQLSKSSGLSRGHEERKTKRPSLRLFGDHDYCQSLNSKTDILINISQELQDSRQLDFKDASCDWQGHICSSTDSGQCYLRETLEASKQVSPCSTRKQLQDQEIRAELNKHFGHPCQAVFDDKSDKTSELRDGDFSNEQFSKLPVFINSGLAMDGLFDDSEDESDKLSYPWDGTQPYSLFDVSPSCSSFNSPCRDSVSPPKSLFSQRPQRMRSRSRSFSRHRSCSRSPYSRSRSRSPGSRSSSRSCYYYESSHYRHRTHRNSPLYVRSRSRSPYSRRPRYDSYEAYEHERLKRDEYRKEHEKRESERAKQRERQKQKAIEERRVIYVGKIRPDTTRTELRDRFEVFGEIEECTVNLRDDGDSYGFITYRYTCDAFAALENGYTLRRSNETDFELYFCGRKQFFKSNYADLDTNSDDFDPASTKSKYDSLDFDSLLKEAQRSLRR

The binders below were run against Flag-tagged full length MED1 (UniProt Q15648 1-1581) (assay: immobilized-template protein recruitment assay).
Chain of Flag-tagged full length MED1 (Q15648 whole entry): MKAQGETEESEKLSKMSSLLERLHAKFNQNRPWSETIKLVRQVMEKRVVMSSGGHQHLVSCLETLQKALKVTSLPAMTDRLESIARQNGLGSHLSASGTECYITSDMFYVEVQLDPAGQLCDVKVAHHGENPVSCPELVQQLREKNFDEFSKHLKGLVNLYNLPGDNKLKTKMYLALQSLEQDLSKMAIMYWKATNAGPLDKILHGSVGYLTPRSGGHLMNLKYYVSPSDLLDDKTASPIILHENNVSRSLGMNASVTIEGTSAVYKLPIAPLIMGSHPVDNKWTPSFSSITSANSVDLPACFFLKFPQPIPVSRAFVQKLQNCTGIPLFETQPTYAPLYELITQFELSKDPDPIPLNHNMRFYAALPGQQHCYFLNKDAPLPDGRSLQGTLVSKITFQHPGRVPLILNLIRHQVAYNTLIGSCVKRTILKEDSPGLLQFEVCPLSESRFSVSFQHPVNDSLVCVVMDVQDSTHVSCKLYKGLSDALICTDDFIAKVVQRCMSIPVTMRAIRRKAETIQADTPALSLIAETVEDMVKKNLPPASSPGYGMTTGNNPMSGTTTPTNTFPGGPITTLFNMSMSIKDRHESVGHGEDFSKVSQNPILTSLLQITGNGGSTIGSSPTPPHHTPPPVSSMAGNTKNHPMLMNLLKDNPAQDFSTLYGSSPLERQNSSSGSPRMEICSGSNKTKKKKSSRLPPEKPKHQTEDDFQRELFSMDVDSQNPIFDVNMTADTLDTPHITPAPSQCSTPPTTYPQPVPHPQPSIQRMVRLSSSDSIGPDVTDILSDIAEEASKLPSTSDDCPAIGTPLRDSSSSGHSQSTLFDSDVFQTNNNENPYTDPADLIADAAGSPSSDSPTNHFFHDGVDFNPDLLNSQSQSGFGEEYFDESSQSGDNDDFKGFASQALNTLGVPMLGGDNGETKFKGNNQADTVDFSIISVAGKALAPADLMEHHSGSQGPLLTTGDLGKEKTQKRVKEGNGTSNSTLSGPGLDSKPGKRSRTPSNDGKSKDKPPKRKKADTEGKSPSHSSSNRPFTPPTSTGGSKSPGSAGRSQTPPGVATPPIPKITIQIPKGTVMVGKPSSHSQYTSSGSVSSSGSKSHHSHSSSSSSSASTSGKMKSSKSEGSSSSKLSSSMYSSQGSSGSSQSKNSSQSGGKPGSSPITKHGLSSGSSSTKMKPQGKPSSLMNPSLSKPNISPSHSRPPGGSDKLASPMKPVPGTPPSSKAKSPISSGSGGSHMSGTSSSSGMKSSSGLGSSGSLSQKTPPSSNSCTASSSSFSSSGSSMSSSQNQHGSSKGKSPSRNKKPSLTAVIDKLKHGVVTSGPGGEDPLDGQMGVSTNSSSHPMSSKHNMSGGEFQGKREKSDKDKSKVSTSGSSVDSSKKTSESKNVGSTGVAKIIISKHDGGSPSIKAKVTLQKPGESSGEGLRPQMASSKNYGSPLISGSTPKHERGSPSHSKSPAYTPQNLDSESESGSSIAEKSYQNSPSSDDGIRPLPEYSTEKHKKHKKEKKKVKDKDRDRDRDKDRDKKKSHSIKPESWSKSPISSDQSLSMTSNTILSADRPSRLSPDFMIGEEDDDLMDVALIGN

Binding result, binds:
B1
B2
B3
